1 substance from publication PMC3459974 can be followed below.

In the test the target is thioredoxin fused-human artemin protein (Trx-ARTN) (human) (UniProt Q5T4W7). In words: SEC; Superdex-200 10/300 column; dimeric Trx-ARTN fractions eluted from the CM-sepharose column, from both refolding methods; calibration with protein standards.

Substance “thioredoxin fused-human artemin protein (Trx-ARTN) (from UniProt Q5T4W7 40-220) (natural protein)” showed a stoichiometry N of 2.
